Experimental findings from patent publication US10456446B2, “Use of human small leucine zipper protein in osteogenesis procedure” (Korea University Research and Business Foundation, priority 2013, dated 2019) are described below.

Assay [1] concerns sLZIP TG mouse embryos. As to the kind of experiment: Ossification in vivo, alcian blue and alizarin red staining of sLZIP TG mouse embryos on E17.5. To be noted: E17.5, compared with wild type littermate. From the text: In order to generate human sLZIP transgenic (TG) mice, sLZIP genes were cloned into a pCMV-flag expression vector. The sLZIP TG mice were generated by Macrogen, Inc (Seoul, Korea). Transgenic founders were mated with wild type C57BL/6 mice to produce F1 heterozygotes. F1-F4 generations were genetically screened for transgenes at an age of 2 weeks old. The following two primers were used to amplify genomic DNA in order to identify wild type and TG mice: 5′-GGACGATGATGACAAGGACT-3′ (SEQ ID NO: 25) and 5′-GTCAGAGGAGTACATGCTGCT-3′(SEQ ID NO: 26).
Therefore, in order to characterize a potential role of sLZIP in the transcriptional activity of Runx2 by inhibiting the transcriptional activity of PPARγ2, the transcriptional activity of Runx2 was examined. For this purpose, 293T cells were temporarily transfected with Runx2 (0.5 μg), β-galactosidase (0.1 μg), 6 copies of Runx2 response elements (0.2 μg) and sLZIP at different contents (0.1 μg to 0.5 μg) (FIG. 7A). PPARγ2 (0.5 μg), β-galactosidase, Runx2, 6 copies of Runx2 response elements and sLZIP (0.5 μg) were expressed in the 293T cells (FIG. 7B). 293T cells were temporarily transfected with HDAC3 (0.5 μg), Runx2, β-galactosidase, 6 copies of Runx2 response elements and sLZIP at different contents (0.25 and 0.5 μg) (FIG. 7C). A promoter activity was measured by luciferase analysis. […]

The target of assay [2] is T1, PPARγ2 and PGC1α (Homo sapiens, UniProt P37231).
T1 construct: expressed in transfected cells; host or cells: 293T (PGC1α endogenous)
T1 sequence (P37231 1-505): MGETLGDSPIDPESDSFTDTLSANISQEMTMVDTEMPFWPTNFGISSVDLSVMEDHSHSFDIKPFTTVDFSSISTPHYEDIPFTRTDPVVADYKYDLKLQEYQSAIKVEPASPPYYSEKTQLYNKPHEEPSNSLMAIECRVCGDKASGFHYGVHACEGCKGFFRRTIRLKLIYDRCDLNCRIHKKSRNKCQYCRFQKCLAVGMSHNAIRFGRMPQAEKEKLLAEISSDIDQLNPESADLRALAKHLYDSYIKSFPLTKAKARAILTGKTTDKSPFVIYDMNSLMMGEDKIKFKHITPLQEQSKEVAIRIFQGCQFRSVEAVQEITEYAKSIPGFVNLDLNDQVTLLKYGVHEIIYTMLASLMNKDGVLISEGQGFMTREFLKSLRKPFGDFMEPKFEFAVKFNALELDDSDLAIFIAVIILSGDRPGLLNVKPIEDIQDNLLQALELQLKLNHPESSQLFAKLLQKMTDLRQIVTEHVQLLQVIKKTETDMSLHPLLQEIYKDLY
As to the kind of experiment: GST pull-down, coactivator PGC1α on PPARγ2. It counts as binding. The note with it: 10 nM RZD for 24 hours. On the procedure: (§1) Therefore, in order to understand a regulation mechanism of sLZIP in the PPARγ2 transcriptional activity by binding to the FABP4 promoter region, an effect of sLZIP on the interaction between PPARγ2 and HDAC3 was examined. For this purpose, 293T cells were transfected with GST-HDAC3, Myc-PPARγ2 and Flag-sLZIP, and were treated or not treated with 10 nM of RZD for 24 hours. Cell lysates were subjected to GST pull-down analysis using a glutathione 4B bead, and a protein complex was analyzed in SDS-PAGE, and then immunoblotted with anti-GST, anti-Myc and anti-Flag antibodies (FIG. 6A). GST-HDAC3, GST-PPARγ2, Myc-PPARγ2, Flag-sLZIP and Ha-UB were expressed in the 293T cells, and the cells were treated with 10 nM of RZD for 24 hours. Cell lysates were subjected to GST pull-down analysis (FIG. 6B). GST-PPARγ2 and Flag-sLZIP were expressed in the 293T cells and treated with 10 nM of RZD for 24 hours. Cell lysates were subjected to GST pull-down analysis, and a protein complex was analyzed in SDS-PAGE, and then immunoblotted with anti-PGC1α, anti-GST and anti-Flag antibodies (FIG. 6C).

Assay [3] deals with T2, PPARγ2 and HDAC3 (Homo sapiens, UniProt P37231).
T2 construct: expressed in transfected cells; host or cells: 293T
T2 sequence (P37231 1-505): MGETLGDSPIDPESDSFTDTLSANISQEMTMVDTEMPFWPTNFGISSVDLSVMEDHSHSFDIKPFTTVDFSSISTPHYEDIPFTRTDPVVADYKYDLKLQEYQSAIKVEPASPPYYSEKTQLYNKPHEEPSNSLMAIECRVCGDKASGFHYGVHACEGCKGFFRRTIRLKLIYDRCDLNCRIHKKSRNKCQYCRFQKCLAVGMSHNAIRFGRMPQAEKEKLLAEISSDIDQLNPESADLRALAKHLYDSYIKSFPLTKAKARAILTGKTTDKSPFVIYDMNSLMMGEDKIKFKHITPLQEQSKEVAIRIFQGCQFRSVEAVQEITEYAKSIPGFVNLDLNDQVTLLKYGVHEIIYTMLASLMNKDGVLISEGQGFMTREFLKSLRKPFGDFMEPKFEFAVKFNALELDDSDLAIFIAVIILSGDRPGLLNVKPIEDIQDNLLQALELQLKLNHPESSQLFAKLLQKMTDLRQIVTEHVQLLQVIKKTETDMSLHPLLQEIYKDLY
Nature of the assay: GST pull-down, effect on interaction between PPARγ2 and HDAC3. To be noted: in the presence of ligand (10 nM RZD, 24 hours). The assay is classed as binding. The protocol:
as §1

B1: sLZIP: human small leucine-zipper protein, isoform of LZIP, 354 amino acids, no transmembrane domain, GenBank FJ263669, SEQ ID NO: 1 (protein, listed as Homo sapiens)
chain: MELELDAGDQDLLAFLLEESGDLGTAPDEAVRAPLDWALPLSEVPSDWEVDDLLCSLLSPPASLNILSSSNPCLVHHDHTYSLPRETVSMDLESESCRKEGTQMTPQHMEELAEQEIARLVLTDEEKSLLEKEGLILPETLPLTKTEEQILKRVRRKIRNKRSAQESRRKKKVYVGGLESRVLKYTAQNMELQNKVQLLEEQNLSLLDQLRKLQAMVIEISNKTSSSSMYSSDTRGSLPAEHGVLSRQLRALPSEDPYQLELPALQSEVPKDSTHQWLDGSDCVLQAPGNTSCLLHYMPQAPSAEPPLEWPFPDLFSEPLCRGPILPLQANLTRKGGWLPTGSPSVILQDRYSG
Consider B1, for which, in assay [1], the “ossification of skull and limb” value was “further promoted ossification”. Also, the “complementing of coactivator PGC-la for PPARγ2” value in assay [2] is listed as “inhibited”. Further, the “interaction between PPARγ2 and HDAC3” value in assay [3] was “enhanced interaction between PPARγ2 and HDAC3”.
